The supplement of paper PMC10126150
± gives the standard deviation of the averaged measurements.

Tested on: ATP
Assay: switch fluorescence ratio, 500 uM ATP over buffer (Cy3 cluster intensity, sum of 5 cycles each) (fold (ratio)); higher = stronger signal-on switching upon ATP binding; sequences stand for … in TCGTCGGCAGCGTCAGATGTGTATAAGAGACAGTTTTTTTTTTTTTTTTTTTTTTTTT…TC
Settings: aptamer strand: ATP DNA aptamer (quencher-CACCTGGGGGAGTATTGCGGAGGAAGG + anchor), 100 nM annealed; ATP concentration: 500 uM
Procedure, shortened: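 Clusters with intensities outside 100-1000 RFU were excluded. The remaining Cy3-labelled switching-strand clusters on a modified Illumina MiSeq flow-cell had been annealed to 100 nM quencher-labelled ATP aptamer and imaged in selection buffer, then after 15 min with 500 uM ATP at 22 °C, for five cycles separated by NaOH stripping and re-annealing. The fluorescence ratio, averaged per switch-domain sequence, is each cluster's summed target-cycle Cy3 intensity over its summed buffer-cycle Cy3 intensity.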
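Note: ATP exposure 15 min at 22 °C before imaging.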

| Sequence | switch fluorescence ratio |
| --- | --- |
| TGGAGGTGTG | 0.977 ± 0.01 |
| GGAACGTGAG | 1.011 ± 0.0011 |
| TTAGGGGATC | 1 ± 0.025 |
| AATTAATAAG | 1.011 ± 0.0076 |
| GAGAGTGAAT | 1.01 ± 0.081 |
| TTCAATGTCG | 1.05 ± 0.024 |
| GGCTGACCGG | 1 ± 0.048 |
| CATAGTATGG | 0.9706 ± 0.0029 |
| GACTGGATAG | 0.983 ± 0.022 |
| ATTTCAGTAG | 1.016 ± 0.0019 |
| AATTTATTTT | 0.991 ± 0.026 |
| AATTCAATGA | 1.01 ± 0.045 |
| CAGAGGTGGC | 1.07 ± 0.032 |
| TACTTCTCCA | 1.04 ± 0.016 |
| TTGAAAGTTT | 1.01 ± 0.026 |
| GGATAGGACA | 1 ± 0.04 |
| TCATTTGGTT | 0.988 ± 0.042 |
| AGGGCAGGTA | 1 ± 0.015 |
| AATCGGGCCA | 0.987 ± 0.018 |
| TACAGAGATT | 0.9778 ± 0.0084 |
| GATGCTACTG | 1.04 ± 0.016 |
| AGGACTAAAG | 0.982 ± 0.013 |
| AATGCTGCGC | 1.03 ± 0.056 |

| Sequence | switch fluorescence ratio |
| --- | --- |
| GGGAAGGGTA | 1 ± 0.033 |
| TTCGTTGGGT | 0.986 ± 0.016 |
| ATGGTTGAGC | 1.03 ± 0.024 |
| GGCTTTCCTG | 1.1 ± 0.089 |
| CGAGGCAAGT | 5.07 ± 1.3 |
| GAAACATTGG | 1.0357 ± 0.00021 |
| TAAGTGGGGA | 0.959 ± 0.032 |
| TGCGATTTTT | 1.01 ± 0.042 |
| ATAGGTAGTC | 0.996 ± 0.02 |
| CTATTACGG | 1.04 ± 0.075 |
| CATTAAGCTG | 1 ± 0.12 |
| TCCATTGAAC | 1.017 ± 0.0026 |
| CCGTAAGGAA | 1.06 ± 0.11 |
| TTTGGGGTAC | 1.72 ± 1.3 |
| TAAAAATATA | 1 ± 0.034 |
| TAAAAAATAT | 0.967 ± 0.043 |
| CCCTGGACGA | 1.07 ± 0.016 |
| ACAGCGCAAT | 2.12 ± 0.94 |
| TAGTAGGGGA | 1.01 ± 0.039 |
| GGTGCTGTGT | 1.01 ± 0.039 |
| CAGGAAATGG | 0.999 ± 0.017 |
| ATATTTTAAG | 0.994 ± 0.034 |
| TGGCGCCACT | 0.976 ± 0.013 |

| Sequence | switch fluorescence ratio |
| --- | --- |
| CTTATGGACT | 0.991 ± 0.033 |
| TTACGGGGTC | 1.07 ± 0.12 |
| CGGGCGCAGT | 1.02 ± 0.043 |
| AGAGCAGCTG | 0.998 ± 0.041 |
| GAGTGGGTTA | 1.03 ± 0.012 |
| ATGGGGTTTC | 1.01 ± 0.051 |
| CATAGGTTTT | 1.03 ± 0.066 |
| TTGGGCTGGT | 0.962 ± 0.035 |
| AGAAAAACCG | 1.05 ± 0.052 |
| TAAGAGTACA | 1.07 ± 0.011 |
| GGTATTATAT | 0.98 ± 0.038 |
| TTTGGCGGGG | 0.999 ± 0.04 |
| ATGTTTTGCT | 0.965 ± 0.029 |
| GGGGGATAGA | 1.03 ± 0.034 |
| TTTGGGGTAT | 0.995 ± 0.028 |
| TGGGCCATGT | 0.9791 ± 0.0065 |
| ATGATGGG | 1.01 ± 0.017 |
| AGCGTAGTCA | 0.9868 ± 0.0021 |
| CAGGAGTGAG | 1.0068 ± 0.00044 |
| GGCCGCCTTG | 1 ± 0.037 |
| ACCGTAAACG | 0.999 ± 0.12 |
| ATTAAGGTCA | 1.064 ± 0.0069 |
| GAGTTGGGAA | 1.04 ± 0.077 |

| Sequence | switch fluorescence ratio |
| --- | --- |
| GCTCTTGGTT | 1.02 ± 0.045 |
| GGCTGAAAGT | 0.991 ± 0.016 |
| GAGTTAAGGG | 1.007 ± 0.0018 |
| AGTTGTTTAG | 1.01 ± 0.012 |
| GGCCTCAAGG | 1.06 ± 0.04 |
| GCCTGGGGAA | 0.9844 ± 0.0087 |
| ACATCAAGGG | 1.06 ± 0.055 |
| CTGTTGGGTT | 0.997 ± 0.016 |
| TTGATACCTA | 1.04 ± 0.038 |
| GTGGGAACAG | 0.979 ± 0.011 |
| AGGGGAAGAG | 0.994 ± 0.07 |
| AGTAGGCAGC | 1.01 ± 0.033 |
| TTTTACCACC | 1.22 ± 0.049 |
| TGCCATTGTT | 0.942 ± 0.01 |
| AATTATTCGA | 1.02 ± 0.011 |
| TAGTCTAGGT | 1.02 ± 0.025 |
| AGCTACACGT | 1.05 ± 0.014 |
| TTTTATTTGC | 1.01 ± 0.024 |
| GATGTGGTGA | 0.9929 ± 0.0061 |
| GTTATTACGT | 1.03 ± 0.021 |
| TTATTTTCGG | 0.994 ± 0.019 |
| ATTTTTCTTC | 1.035 ± 0.0046 |
| GCCGGGTTAT | 1.03 ± 0.079 |

| Sequence | switch fluorescence ratio |
| --- | --- |
| AATTTTTGGG | 0.994 ± 0.03 |
| GATGACTTGT | 0.972 ± 0.011 |
| TGGCAGACGG | 1.01 ± 0.038 |
| GATTTTTATA | 0.969 ± 0.028 |
| ATGGCAATGT | 1.08 ± 0.013 |
| ATTGGTATGA | 0.994 ± 0.018 |
| TTTTTAGGTA | 0.992 ± 0.017 |
| CGGATCCAGG | 1.35 ± 0.042 |
| AGTGAAAATT | 1 ± 0.038 |
| TATTTGTCAT | 1.02 ± 0.013 |
| TATTGAGAGA | 1.02 ± 0.053 |
| CGATATCGAG | 0.98 ± 0.051 |
| ACGCGACGGA | 1.07 ± 0.079 |
| TAAGTATCGC | 1.03 ± 0.036 |
| TTGTTAATAG | 1.06 ± 0.062 |
| CTGGGTGCAT | 1.14 ± 0.032 |
| ATCAAGGGTG | 1.11 ± 0.013 |
| CTTGTGTGTC | 0.999 ± 0.015 |
| GGTGCATATA | 1.05 ± 0.032 |
| TTTGTGGGA | 0.997 ± 0.021 |
| TTCTTTATCG | 1.02 ± 0.073 |
| AATTGGTAAA | 0.9816 ± 0.0044 |
| GGGGGGGTGC | 1.02 ± 0.049 |

| Sequence | switch fluorescence ratio |
| --- | --- |
| CTATTATCTG | 1.01 ± 0.024 |
| GGGTCCATTC | 1.01 ± 0.02 |
| TCGGGGGCGA | 1.13 ± 0.17 |
| CGGGACCTGG | 0.958 ± 0.077 |
| GTACTCGGGG | 0.9991 ± 0.0074 |
| CATCGCGGTT | 1.07 ± 0.022 |
| GAGGTTTTGG | 1.03 ± 0.057 |
| AGGGGTGCTG | 0.975 ± 0.039 |
| AGAAAAGAGT | 1.01 ± 0.017 |
| GAAACCGTGG | 1.06 ± 0.019 |
| GGTTGCGTTT | 0.9997 ± 0.001 |
| CTGATCAGCA | 1.03 ± 0.04 |
| TTGCGCAATT | 1.51 ± 0.47 |
| TTGTAGACAG | 1.013 ± 0.0088 |
| GCAAGACAAG | 1.05 ± 0.036 |
| CGCAGTTCTT | 1.198 ± 0.0086 |
| TTACTACTTT | 1.04 ± 0.0099 |
| ATAGCTTGGG | 0.985 ± 0.017 |
| TGGTTTTCGT | 1.01 ± 0.028 |
| TCTGGGGCGC | 0.984 ± 0.015 |
| AAGGTTCGGG | 0.994 ± 0.018 |
| GTGTTAGCTG | 1.02 ± 0.028 |
| AATTTTGTTT | 0.991 ± 0.035 |

| Sequence | switch fluorescence ratio |
| --- | --- |
| AATTCGATAG | 0.966 ± 0.0039 |
| TTCTCCTTTT | 1.01 ± 0.021 |
| TTTAGAGTGC | 1 ± 0.093 |
| TTTTAGGGAA | 1.03 ± 0.035 |
| TTTGAGTGGT | 0.993 ± 0.013 |
| ATGGGGAGAA | 1.01 ± 0.029 |
| GCCTTGGGAA | 1.02 ± 0.028 |
| GGGTTTTTAG | 0.994 ± 0.033 |
| GAGACTTAGA | 1.007 ± 0.0038 |
| TGGACCTGAA | 1.1 ± 0.038 |
| AAGAGACTGT | 1.002 ± 0.0034 |
| TGGCGGCCAC | 1.04 ± 0.15 |
| AAAAGTTGGT | 1.02 ± 0.083 |
| TTTTTTCAAG | 0.978 ± 0.019 |
| TGGTACCTTG | 1.19 ± 0.26 |
| GTGGGGGGTC | 1.01 ± 0.062 |
| GGGGTACAGG | 1.005 ± 0.0055 |
| TATTATAGGA | 0.982 ± 0.017 |
| AACGTTCGCC | 0.987 ± 0.032 |
